In patent US20200231956:

Target: dipeptides with a proline at the second position

B1: aminopeptidase T from Thermus aquaticus, with a Cys added at the N-terminus and a 6xHis at the C-terminus (protein)
chain: MCDAFTENLNKLAELAIRVGLNLEEGQEIVATAPIEAVDFVRLLAEKAYENGASLFTVLYGDNLIARKRLALVPEAHLDRAPAWLYEGMAKAFHEGAARLAVSGNDPKALEGLPPERVGRAQQAQSRAYRPTLSAITEFVTNWTIVPFAHPGWAKAVFPGLPEEEAVQRLWQAIFQATRVDQEDPVAAWEAHNRVLHAKVAFLNEKRFHALHFQGPGTDLTVGLAEGHLWQGGATPTKKGRLCNPNLPTEEVFTAPHRERVEGVVRASRPLALSGQLVEGLWARFEGGVAVEVGAEKGEEVLKKLLDTDEGARRLGEVALVPADNPIAKTGLVFFDTLFDENAASHIAFGQAYAENLEGRPSGEEFRRRGGNESMVHVDWMIGSEEVDVDGLLEDGTRVPLMRRGRWVIHHHHHH
aminopeptidase assay, cleavage of the N-terminal amino acid: TaqAPT cleaves dipeptides even with a proline at the second position
